Source: US8822187B1, “Polypeptides, nucleic acid molecules, and methods for synthesis of triterpenes” (University of Kentucky Research Foundation, priority 2011, dated 2014)

T1: Botryococcus braunii race B squalene synthase-like 1 (SSL-1), wild type, hexa-histidine tagged, SEQ ID NO: 2 (Botryococcus braunii, UniProt G0Y286)
T1 construct: FPP substrate with or without NADPH
T1 sequence (G0Y286 1-403): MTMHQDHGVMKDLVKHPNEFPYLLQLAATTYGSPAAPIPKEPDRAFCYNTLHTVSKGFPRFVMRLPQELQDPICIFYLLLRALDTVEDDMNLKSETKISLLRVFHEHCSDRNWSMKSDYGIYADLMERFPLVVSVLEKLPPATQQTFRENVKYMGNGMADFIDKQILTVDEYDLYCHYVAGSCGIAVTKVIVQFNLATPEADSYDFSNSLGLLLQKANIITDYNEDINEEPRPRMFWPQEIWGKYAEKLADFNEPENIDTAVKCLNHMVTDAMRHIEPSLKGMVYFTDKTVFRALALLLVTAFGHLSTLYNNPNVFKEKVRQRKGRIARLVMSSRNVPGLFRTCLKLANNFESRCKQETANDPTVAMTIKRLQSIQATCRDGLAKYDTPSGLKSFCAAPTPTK

B1: SSL-3: Botryococcus braunii race B squalene synthase-like 3 enzyme; converts PSPP to botryococcene (protein)
chain: MKLREVLQHPGEIIPLLQMMVMAYRRKRKPQDPNLAWCWETLIKVSRSYVLVIQQLPEVLQDPICVNYLVLRGLDTLQDDMAIPAEKRVPLLLDYYNHIGDITWKPPCGYGQYVELIEEYPRVTKEFLKLNKQDQQFITDMCMRLGAEMTVFLKRDVLTVPDLDLYAFTNNGPVAICLTKLWVDRKFADPKLLDREDLSGHMAMFLGKINVIRDIKEDVLEDPPRIWWPKEIWGKYLKDLRDIIKPEYQKEALACLNDILTDALRHIEPCLQYMEMVWDEGVFKFCAVPELMSLATISVCYNNPKVFTGVVKMRRGETAKLFLSVTNMPALYKSFSAIAEEMEAKCVREDPNFALTVKRLQDVQALCKAGLAKSNGKVSAKGA

How the values were obtained:
[1] = biological target: T1, Botryococcus braunii race B squalene synthase-like 1 (SSL-1), wild type, hexa-histidine tagged, SEQ ID NO: 2; test: Michaelis-Menten enzyme kinetics of the SSL-1 reaction (radiolabeled FPP to PSPP); type: biochemical
Description: FIG. 5 depicts Michaelis-Menten enzyme kinetics of the SSL-1 reaction. Enzyme assays (50 μl) were set up as described in the methods section with purified SSL-1 (0.2-1.0 μg), 0.1% triton X-100, ±2 mM NADPH, and the indicated concentration of ^3H-FPP. Assays were incubated for 15 min at 37° C. and stopped by addition of 50 μl 0.5 M EDTA. The reactions were then extracted 3× with 200 μl water saturated 1-butanol and pooled in a 4 ml glass screw cap vial. The butanol was evaporated with a stream of nitrogen gas and the white residue was resuspended in 2 ml of acid phosphatase solution (20% 1-propanol (v/v), 100 mM sodium acetate pH 4.7, 0.1% Triton X-100, 10 units sweet potato acid phosphatase) and incubated overnight (12-16 h) in a 28° C. shaker. […] The standards were visualized with iodine vapors and the zones corresponding to FOH (rf=0.65) and PSOH (rf=0.45) were scraped and analyzed by scintillation spectroscopy. […] The data was analyzed using the SigmaPlot Enzyme Kinetics 1.3 software. […]
Purification of the bacterial expressed enzymes was afforded by the amino-terminal hexa-histidine tag using His-Select Cobalt affinity gel (Sigma) columns according the manufacturer's recommendations. Recovery of proteins with the expected molecular sizes was determined by SDS-PAGE. […]

[2] = Purified bacterial-expressed enzymes incubated with FPP, products by GC-MS or TLC/scintillation counting; type: biochemical; conditions: FPP as substrate, enzyme assayed alone
Description: (§1) FIG. 6 depicts the functional characterization of the squalene synthase-like genes of Botryococcus braunii race B. The squalene synthase-like genes, SSL-1, SSL-2 and SSL-3, were expressed in yeast separately (SSL-1 (B), SSL-2(C) or SSL-3(D)) or in combinations (SSL-1+SSL-2(E), SSL-1+SSL-3(F)) and the hexane extractable metabolites profiled by GC-MS. The chemical profile of yeast not engineered with any gene constructs serves as the background control (A). […] Data (J) represents mean±S.E.M. obtained from three independent experiments (n=3). The chromatograms (A-I) are also annotated for the elution behavior of botryococcene (1), squalene (2), presqualene alcohol (3) and bisfarnesyl ether (4).
The recombinant vectors were transformed into E. coli strain BL21(DE3) according to the manufacturer's recommendations (Novagen). The selected lines were grown with kanamycin selection at 37° C. with vigorous shaking until the cultures reached an optical density of ˜0.8 (OD600 nm), then expression of the corresponding SSL gene induced by addition of 0.5 mM isopropylthio-β-D-galactoside (IPTG) and the cultures incubate for an additional 3 to 20 h with shaking at room temperature. One hundred ml of the culture was subject to centrifugation at 4,000 g for 10 min, the pelleted cells resuspended in 10 ml of lysis buffer containing 50 mM NaH2PO4, pH 7.8, 300 mM NaCl, 10 mM imidazole, 1 mM MgCl2, 1 mM PMSF, 1% glycerol (v/v), then sonicated 4× for 10 sec with a microprobe sonicator at 60% maximum power. The samples were cooled on ice for 2 min between sonication treatments. The sonicate was centrifuged at 16,000 g for 10 min at 4° C. and the supernatant used for purification of the hexa-histidine tagged enzymes.
Purification of the bacterial expressed enzymes was afforded by the amino-terminal hexa-histidine tag using His-Select Cobalt affinity gel (Sigma) columns according the manufacturer's recommendations. Recovery of proteins with the expected molecular sizes was determined by SDS-PAGE. The purified protein fractions were concentrated using Amicon Ultra (0.5 ml, 10K) centrifugation filter units and stored in 300 mM NaCl, 20 mM Tris-HCl pH 7.5, 5 mM dithiothreitol, 2 mM MgCL2, 50% glycerol (v/v) at −20° C. for 2-3 weeks without noticeable loss of activity.
Typical enzyme assays were initiated by mixing aliquots of purified enzyme with 50 mM Mops, pH 7.3, 20 mM MgCl2, 2.5 mM 2-mercaptoethanol, 10 μM [1-^3H]-FPP (˜2×10^5 dpm total), and 2 mM NADPH in total reaction volume of 50 μl. Reactions were incubated at 37° C. for 1 h and then extracted with 100 μl n-hexane or 100 ul MTBE. Forty μl of the n-hexane or MTBE extract was then spotted onto silica TLC plates with authentic standards of botryococcene and squalene and developed with n-hexane, or standards of bisfarnesyl ether and developed with n-hexane:MTBE, 25:1. The standards were visualized with iodine vapors and TLC zones corresponding to the standards were scrapped and analyzed by scintillation spectrometry. If Botryococcus lysate was added to enzyme assays, typically 5 μl of lysate (corresponding to 10 μg total protein) prepared from B. braunii cells according to Okada et al. (1) was added. […] Extracts were resuspended in 50 μl hexane and an aliquot analyzed by GC-MS with a Varian CP-3800 GC coupled to a Varian Saturn 2200 MS/MS (Varian Medical Systems) using a Supelco SLB-5 ms fused silica capillary column (30 m×0.25 mm×0.25 μM film thickness, Supelco). […]

TN7 yeast line = test: Expression of SSL genes in TN7 yeast line, hexane extractable metabolites by GC-MS; type: cell-based; conditions: gene expressed separately in yeast
Description: as §1
FIG. 10 includes a comparison of botryococcene production in yeast engineered with different configurations of SSL-1 and SSL-3. Yeast line TN7 was engineered with the SSL-1 and SSL-3 genes on separate plasmids (squares), with gene fusions (SSL-1 fused to SSL-3 via a triplet repeat of GGSG (triangles), or vice versa (diamonds)), or with 63 or 71 amino acids of the carboxy terminus of the Botryococcus squalene synthase, sequences containing a membrane spanning domain, appended to the carboxy termini of the SSL-1 and SSL-3 enzymes, respectively (circles). The data represents mean±S.E.M.
The various recombinant yeast expression vectors were introduced into the TN7 yeast line via lithium acetate transformation, followed by selection for uracil and leucine auoxtrophic growth (Takahashi, et al. (2007)). […] Individual colonies of TN7 and the various TN7-transformants were subsequently grown in 25 ml of YPDE (nutrient rich) or Yeast Synthetic Drop-out medium (selection) for the indicated time at 25° C. before analyzing the cultures for production of novel triterpene components. In brief, 1 ml aliquots of the culture were combined with 1 ml of acetone, vigorously mixed, and incubated at room temperature for 10 min. One ml of hexane was added and mixed vigorously for 60 sec. […] The dried extract was resuspended in 50-500 μl of n-hexane and a 1 μl aliquot analyzed by GC-MS as described above. […]

[3] = Secondary enzyme assays of SSL-3 or SSL-2 with PSPP versus FPP; type: biochemical; conditions: 2 mM NADPH, 1 μg enzyme, 37° C., 15 min
Description: Two primary enzyme assays (500 μl) were set up with 20 μg of purified SSL-1 or Nicotiana benthamiana squalene synthase (TSS) plus 40 μM ^3H-FPP. The assays were incubated at 37° C. for 1 h, then extracted 3× with 500 μl water saturated 1-butanol, pooled, and evaporated under a stream of nitrogen gas. The white residue was resuspended in 50 μl of 25 mM NH4HCO3 in 70% ethanol (v/v). An aliquot of the resuspension was analyzed by the acid phosphatase assay (described in supplemental FIG. 4) and shown to consist of 45% and 40% PSPP for the SSL-1 and TSS primary incubations, respectively. […] It was calculated that 1 μl of each resuspension contained ˜150 pmoles of 3H-PSPP. […] For comparison, enzyme assays were also set up containing 3 μM ^3H-FPP, 2 mM NADPH and either 1 μg each of SSL-1 plus SSL-3, or SSL-1 plus SSL-2. Additional control assays contained 5 μM ^3H-FPP, 2 mM NADPH, and either 1 μg of SSL-3 or SSL-2. The reactions were incubated at 37° C. for 15 min, stopped by addition of 50 μl 0.5 M EDTA, and extracted with 100 μl n-hexane. Aliquots of the hexane extracts, along with standards of squalene and botryococcene, were separated by silica TLC using n-hexane as the developing solvent. Standards were visualized with iodine vapors and the corresponding zones were analyzed by scintillation spectroscopy. […]

Molecule	stimulation of activity by NADPH addition ([1]; NADPH addition, radiolabeled FPP substrate)	effect of NADPH addition on enzyme activity (difference) ([1]; ±2 mM NADPH, 3H-FPP substrate, 15 min at 37° C.)	squalene or botryococcene biosynthesis by purified enzyme in vitro [2]	products accumulating in yeast (TN7 yeast line)	biosynthesis from PSPP versus FPP [3]
NC(=O)C1=CN([C@@H]2O[C@H](COP(=O)(O)OP(=O)(O)OC[C@H]3O[C@@H](n4cnc5c(N)ncnc54)[C@H](OP(=O)(O)O)[C@@H]3O)[C@@H](O)[C@H]2O)C=CC1 [NADPH]	no stimulation	less than 4%	–	–	–
B1	–	–	neither bacterial-expressed, purified enzymes exhibited any botryococcene biosynthesis	did not cause the accumulation of any distinct products	efficiently catalyze the biosynthesis of squalene and botryococcene, respectively, from PSPP but not FPP
